Results on 20 molecules are retold here after patent US20220195023A1.

To fix the notation:
B1: AB-000317 (antibody, V domains shown)
VH: QMQLVESGGGVVQPGRSLRLSCTASGFTFSTYAMHWVRQSPGQGLQWVAVISYHSTNKYYEDSVRGRFTISRDNSKNTLYLQMNSLRAEDTAVYYCARDGYSSSFFDFWGQGTLVTVSS
VL: DIQMTQSPSTLSASVGDRVAITCRASQSISRWLAWYQQQPGKAPKLLMSGASVLESGVPSRFSGSGSGTEFTLTISSLQPDDFATYYCQHYNSYFVTFGQGTKVEIK
B2: AB-007067 (antibody, V domains shown)
VH: B1 VH
VL: B1 VL with G50S
B3: AB-007069 (antibody, V domains shown)
VH: B1 VH
VL: B1 VL with G50V
B4: AB-007050 (antibody, V domains shown)
VH: B1 VH with Y53Q
VL: B1 VL
B5: AB-007061 (antibody, V domains shown)
VH: B1 VH
VL: B1 VL with S30D
B6: AB-007048 (antibody, V domains shown)
VH: B1 VH with A33S
VL: B1 VL
B7: AB-007059 (antibody, V domains shown)
VH: B1 VH with S104T
VL: B1 VL
B8: AB-007060 (antibody, V domains shown)
VH: B1 VH with F105Y
VL: B1 VL
B9: AB-007056 (antibody, V domains shown)
VH: B1 VH with S102Q
VL: B1 VL
B10: AB-007064 (antibody, V domains shown)
VH: B1 VH
VL: B1 VL with S49T
B11: AB-007068 (antibody, V domains shown)
VH: B1 VH
VL: B1 VL with G50L
B12: AB-007053 (antibody, V domains shown)
VH: B1 VH with N57Q
VL: B1 VL
B13: AB-007063 (antibody, V domains shown)
VH: B1 VH
VL: B1 VL with S49A
B14: AB-007058 (antibody, V domains shown)
VH: B1 VH with S103T
VL: B1 VL
B15: AB-007065 (antibody, V domains shown)
VH: B1 VH
VL: B1 VL with G50K
B16: AB-007029 (antibody, V domains shown)
VH: B1 VH with M2V
VL: B1 VL
B17: AB-007066 (antibody, V domains shown)
VH: B1 VH
VL: B1 VL with G50Q
B18: AB-007045 (antibody, V domains shown)
VH: B1 VH with G100A
VL: B1 VL
B19: AB-007062 (antibody, V domains shown)
VH: B1 VH
VL: B1 VL with R31S
B20: AB-007055 (antibody, V domains shown)
VH: B1 VH with S102T
VL: B1 VL

A word on the Kd: it is the concentration at which binding is half-saturated. A low value points to a tighter complex.

Changes are numbered by the printed parent chain. Where “and” joins values, the source holds several entries; their conditions need not be identical. Equal entries are not always repeated.

In one assay the target is (NANP)6 (Plasmodium falciparum). The assay is described as follows: BLI, target on sensor. In general terms: Biolayer interferometry detects binding as a change in optical thickness at a sensor tip.
Take B1: the Kd is 0.714 nM and 1.38 nM.
Still for that read-out and setting: then B2, with 0.647 nM; and B3, with 1.33 nM.
Still for that read-out and setting: as for B4, the figure is 0.856 nM; as for B5, 0.385 nM; as for B6, 1.46 nM.
In the case of B7, the Kd is 1.41 nM.
The same measure, in the same setting: as for B8, the figure is 0.898 nM; as for B9, 0.88 nM.
B10 came in with a Kd of 0.434 nM.
On the same count and under the same terms, then B11, with 1.59 nM; and B12, with 1.37 nM.
Take B13: the Kd came out at 1.64 nM.
Turning to B14, the Kd was 1.14 nM.
On the same count and under the same terms, then B15, with 0.729 nM; and B16, with 0.803 nM.
Turning to B17, the Kd was determined as 0.315 nM.
On the same count and under the same terms, then B18, with 0.703 nM.
Turning to B19, the Kd is 0.607 nM.
B20 had a Kd of 1.61 nM.

The next assay has as its target NANPNVDP (Plasmodium falciparum). Put plainly: BLI, target on sensor.
As for B1, the Kd is 9.2 nM and 12.7 nM.
For the molecule B3, the Kd stood at 26.6 nM.
Turning to B5, the Kd was 12.3 nM.
Still for that read-out and setting: as for B7, the figure is 25.8 nM.
Regarding B9, the Kd was determined as 29.6 nM.
The molecule B10 returned a Kd of 36.7 nM.
B11 yielded a Kd of 21.8 nM.
The molecule B12 gave an equilibrium dissociation constant (Kd) of 24.7 nM.
B13 gave a Kd of 13.1 nM.
The same measure, in the same setting: then B15, with 15.8 nM.
In turn, B16 returned a Kd of 13.2 nM.
The same measure, in the same setting: then B18, with 28.2 nM; and B19, with 22.4 nM.

In a further assay the target is … (Plasmodium falciparum). The assay is described as follows: BLI, target on sensor.
In the case of B1, the Kd is 2.76 nM and 2.51 nM.
As to B2, the Kd came out at 36.1 nM.
Take B3: the Kd came to 27.5 nM.
B4 showed a Kd of 37.4 nM.
As for B5, the Kd is 4.11 nM.
As for B6, the Kd worked out at 28.6 nM.
For the molecule B7, the Kd was 17.4 nM.
Still for that read-out and setting: then B8, with 43.2 nM; and B9, with 23.6 nM; and B10, with 30.9 nM.
Same read-out and setting: as for B11, the figure is 18.3 nM.
Consider B12, for which the Kd came out at 23.5 nM.
Consider B13, for which the Kd came out at 7.03 nM.
For B14, the Kd turned out to be 46.3 nM.
On the same count and under the same terms, as for B15, the figure is 9.73 nM.
For B16, the dissociation constant Kd was 5.62 nM.
In turn, B17 gave a Kd of 26.6 nM.
Turning to B18, the Kd worked out at 43.6 nM.
On to B19, for which the dissociation constant (Kd) was determined as 14.3 nM.

In the next assay the target is (NVDP)3(NANP)2 (Plasmodium falciparum). Put plainly: BLI, target on sensor.
In the case of B1, the Kd is 4.27 nM and 3.73 nM.
As to B2, the Kd is 34 nM.
In turn, B3 had a Kd of 28.7 nM.
B4 registered a Kd of 33.4 nM.
Take B5: the Kd was 5.68 nM.
On the same count and under the same terms, as for B6, the figure is 34.6 nM.
With B7, the Kd amounted to 19.8 nM.
Molecule B8 had a Kd of 45.2 nM.
Take B9: the Kd is 24.9 nM.
The same measure, in the same setting: as for B10, the figure is 33.7 nM; as for B11, 17.1 nM; as for B12, 25.8 nM.
Molecule B13 showed a Kd of 9.73 nM.
B14 registered a Kd of 42.2 nM.
The same measure, in the same setting: as for B15, the figure is 9.71 nM; as for B16, 6.67 nM.
The molecule B17 returned a Kd of 22.4 nM.
Turning to B18, the Kd turned out to be 43.9 nM.
B19 returned a Kd of 13.6 nM.

The next assay deals with (NPNA)3 (Plasmodium falciparum). Put plainly: BLI, target on sensor.
B1: the Kd was 0.18 nM and 0.8 nM.
Consider B2, for which the Kd came out at 2.02 nM.
Same read-out and setting: then B3, with 1.43 nM; and B4, with 1.05 nM; and B5, with 0.00376 nM.
Still for that read-out and setting: then B6, with 3.33 nM; and B7, with 0.478 nM; and B8, with 1.14 nM.
In the case of B9, the Kd was found to be 0.263 nM.
Regarding B10, the Kd was 0.453 nM.
B11 yielded a Kd of 0.703 nM.
B12 showed a Kd of 0.552 nM.
B13 registered a Kd of 0.691 nM.
B14 displayed a Kd of 1.3 nM.
The molecule B15 returned a Kd of 2.23 nM.
B16: the equilibrium dissociation constant (Kd) is 0.166 nM.
Turning to B17, the Kd is 3.58 nM.
Take B18: the Kd turned out to be 0.734 nM.
On the same count and under the same terms, as for B19, the figure is 0.00796 nM.
As to B20, the Kd came out at 3.62 nM.

In the next assay the target is (NANP)6 (Plasmodium falciparum). The assay is described as follows: SPR, antibody on chip.
With B1, the Kd is 1.75 nM and 0.817 nM.
B2: the Kd is 0.244 nM.
The molecule B3 returned a Kd of 1.85 nM.
On the same count and under the same terms, as for B4, the figure is 0.54 nM; as for B5, 0.0657 nM; as for B6, 1 nM.
Same read-out and setting: as for B7, the figure is 0.266 nM; as for B8, 1.21 nM.
As for B9, the Kd turned out to be 0.104 nM.
As to B10, the Kd came out at 0.192 nM.
B11 returned a Kd of 1.56 nM.
B12 yielded a Kd of 1.42 nM.
On to B13, for which the Kd was 0.194 nM.
On to B14, for which the Kd worked out at 0.137 nM.
As to B15, the Kd was found to be 0.238 nM.
The molecule B16 registered a Kd of 0.177 nM.
The molecule B17 returned a Kd of 0.979 nM.
As to B18, the Kd amounted to 2.35 nM.
In turn, B19 yielded a Kd of 0.338 nM.
Still for that read-out and setting: as for B20, the figure is 0.403 nM.

In the next assay the target is … (Plasmodium falciparum). Put plainly: SPR, antibody on chip. Background: SPR reads the build-up and loss of mass on a sensor chip optically.
Regarding B1, the Kd was 12900 nM and 15800 nM.
Turning to B5, the Kd turned out to be 14600 nM.
For B13, the Kd stood at 12200 nM.
Still for that read-out and setting: as for B16, the figure is 26200 nM.
Take B19: the Kd was 25000 nM.

The next assay has as its target (NVDP)3(NANP)2 (Plasmodium falciparum). Put plainly: SPR, antibody on chip.
As to B1, the Kd is 2590 nM and 2910 nM.
Regarding B5, the Kd came to 4000 nM.
B7 came in with a Kd of 17500 nM.
On to B11, for which the Kd was 32400 nM.
In the case of B13, the Kd was 3890 nM.
Same read-out and setting: then B15, with 12600 nM; and B16, with 4790 nM.
Molecule B19 came in with a dissociation constant (Kd) of 6250 nM.

The target in the next assay is (NPNA)3 (Plasmodium falciparum). Put plainly: SPR, antibody on chip.
On to B1, for which the Kd was 4.91 nM and 11.2 nM.
Take B2: the Kd amounted to 207 nM.
Still for that read-out and setting: then B3, with 204 nM; and B4, with 271 nM.
For B5, the Kd was determined as 6.69 nM.
The molecule B6 yielded a Kd of 1550 nM.
As for B7, the Kd amounted to 174 nM.
B8 had a Kd of 212 nM.
B9 gave a Kd of 62 nM.
The molecule B10 returned a Kd of 152 nM.
B11 registered a Kd of 111 nM.
The molecule B12 gave a Kd of 112 nM.
Consider B13, for which the Kd amounted to 14.1 nM.
In turn, B14 displayed a Kd of 339 nM.
Take B15: the Kd was found to be 125 nM.
The molecule B16 displayed a Kd of 11.3 nM.
B17 gave a Kd of 357 nM.
In turn, B18 gave a Kd of 246 nM.
Turning to B19, the Kd turned out to be 10 nM.
Molecule B20 displayed a Kd of 1470 nM.
